Here are results for one substance from patent US6340783B1, “Rodent models of human amyloidoses” (University of Washington, priority 1992, dated 2002).

One experiment has as its target T1, BAPP-770 (Homo sapiens, UniProt P05067).
T1 construct: host or cells: baculovirus-derived
As to conditions: single binding site; cited from earlier work.

Another experiment concerns the target T2, BAPP-751 (Homo sapiens, UniProt P05067).
T2 construct: host or cells: baculovirus-derived
As to conditions: single binding site; cited from earlier work.

The target in experiment [1] is basic fibroblast growth factor (Homo sapiens, UniProt P09038). As to conditions: mediated by heparan sulfate GAG chains; cited from earlier work.
The target of experiment [2] is T3, Beta-Amyloid Protein (1-28) (Homo sapiens, UniProt P05067).
T3 construct: residues 1-28 of BAP or residues 597-624 of BAPP; purchased Bachem Inc., Torrance, Calif; host or cells: synthetic peptide
In words: Competitive inhibition of 125I-labeled HSPG binding to BAP (1-28) affinity column. As to the method:
^125I-labeled HSPGs in the presence of increasing concentrations of unlabeled GAGs, or large low density HSPG (from EHS sarcoma) were applied to an Affi-gel 10 column containing BAP (residues 1-28). After nonbound PGs were eluted from the column using TBS+0.1% TX-100, bound PGs were eluted with a step gradient using 15 ml of 1M MgCl2 in TBS+0.1% TX-100, followed by 15 ml of 4M MgCl2 in TBS+0.1% TX-100, and then 10 ml of 8M urea buffer containing 3M NaCl. […] Bars indicate standard error of the mean.
In order to test the specificity of HSPG binding to BAP (1-28), competitive inhibition experiments were also performed. 125-I labeled HSPGs (100,000-200,000 dpm) were mixed with (a) HSPG from EHS sarcoma (Mr approximately 700,000) (Kato et al., 1988) (gift of Dr. Koji Kimata, Aichi, Japan), (b) heparin from porcine intestinal mucosa (Mr˜11,000; Sigma, St. Louis, Mo.), (c) chondroitin-6-sulfate from shark cartilage (Mr˜59,000; Sigma, St. Louis, Mo.), or (d) […] dextran sulfate (Mr˜110,000; Pharmacia Fine Chemicals, Uppsala, Sweden). The samples were incubated on a rotator for 2 hours at room temperature and then applied to the BAP (1-28) column. Columns were run and eluted with step gradients (1 to 4 M MgCl2) as described above.
Purified iodinated HSPGs were combined with various concentrations of unlabeled competing ligands and applied to a BAP (1-28) affinity column (FIG. 10).

Experiment [3] concerns β/A4 amyloid deposition in rat hippocampus. In words: Rat infusion model of β/A4 amyloid deposition in hippocampus. In kind it is in vivo. As to conditions: 1 week infusion. On the procedure: For infusion studies, all reagents were dissolved and stored at 4° C. the night prior to surgery. β/A4 (residues 1-40; Bachem California Inc., Torrance, Calif.; Lot #ZJ209) was initially dissolved at 10 mg/ml in 35% acetonitrile (stock solution), with the final diluted concentration of acetonitrile less than 3% in animals infused with β/A4 or its vehicle (see below). Perlecan (basement membrane derived HSPG) and heparan sulfate (HS) GAGs were isolated and purified from the mouse Engelbreth-Holm-Swarm (EHS) sarcoma as described (6), and dissolved in sterile saline at 5 mg/ml and 10 mg/ml, respectively. Male Sprague-Dawley rats (250-300 gms; 3 months old; Harlan Sprague Dawley) were implanted with Alzet 2002 minipumps delivering the following solutions directly into hippocampus at a flow rate of 0.5 μl per hour for one week (7); 1) β/A4 (7.5 μl stock) & HSPG (92.5 μl stock), 6 animals; 2) β/A4 (7.5 μl stock) & HS GAGs (92.5 μl stock), 4 animals; 3) β/A4 (7.5 μl stock) & saline (92.5 μl), 6 animals; 4) HSPG only (100 μl), 4 animals; 5) HS GAGs only (100 μl), 4 animals; 6) saline only (100 μl), 4 animals; and 7) 35% acetonitrile (β/A4 vehicle, 7.5 μl) & saline (92.5 μl), 2 animals. High concentrations of these reagents were chosen to maximize possible effects following infusion into brain. The approximate quantity of β/A4 peptide infused into brain by the end of 1 week in each animal having β/A4 (1-40) as part of the infusate was 75 μg, at least 5 times the amount previously reported in rat models employing single acute injections (8, 9). After one week of continuous infusion, rats were sacrificed by overdose with pentobarbital and perfused with 100 ml of saline followed by 150 ml of 4% paraformaldehyde buffered with phosphate (pH 7.4), postfixed for 24 hours and transferred to phosphate buffered saline for paraffin embedding. Once embedded, consecutive 6 μm serial sections were cut and placed on poly-D-lysine coated slides. Two additional animals in the β/A4 only and the β/A4 & HSPG groups were processed for electron microscopy as described (10).
Detection of infused macromolecules was monitored using two polyclonal antibodies against synthetic β/A4 (either against β/A4 1-28 or 1-40) (13), and two monoclonal antibodies recognizing either HS GAGs (HK-249) (14) or the core protein of perlecan (HK-102) (15). Additionally, two polyclonal antibodies recognizing the core protein of perlecan (17) assessed effects of infused macromolecules (16) on endogenous brain HSPGs. Detection of other AD-like markers included Alz-50 antibody immunostaining (18), and silver staining by the modified Bielschowsky method (19). Possible inflammation-associated amyloid protein involvement was monitored by AA amyloid protein immunostaining (20). The presence of other cell types such as astrocytes was detected by immunostaining with a polyclonal antibody to glial fibrillary acidic protein (GFAP) (1:10,000 dilution; Dako), whereas microglia/macrophage infiltration was detected using a rat monoclonal antibody known as ED1 (1:2500 dilution; Serotec). For all immunostaining, negative controls consisted of using Tris-buffered saline (TBS) instead of the primary antibody, and/or preabsorption experiments using the primary antibody in the presence of excess antigen. In order to quantify possible staining and/or immunostaining differences between the various infusion groups, slides were scored blindly by two independent investigators as described (21) (Table 1; see FIG. 35).
7. Rats were anesthetized with pentobarbital (50 mg/kg) and a 27 gauge steel cannula was stereotactically implanted into the hippocampus using bregma as reference point (AP −4.8; ML 3.5; DV 4), and secured to the skull by machine screws and dental acrylic. The cannula was connected via a 15 cm coil of vinyl tubing to a model 2002 osmotic minipump (Alzet Inc.) placed subcutaneously beneath the shoulder blades. […]

For a further experiment, the target named is T4, BAPP-695 (Homo sapiens, UniProt P05067).
T4 construct: host or cells: baculovirus-derived
As to conditions: single binding site; cited from earlier work.

A value given as a limit tells only on which side of the number the result lay.

basic fibroblast growth factor, sequence (P09038 143-288, species assumed): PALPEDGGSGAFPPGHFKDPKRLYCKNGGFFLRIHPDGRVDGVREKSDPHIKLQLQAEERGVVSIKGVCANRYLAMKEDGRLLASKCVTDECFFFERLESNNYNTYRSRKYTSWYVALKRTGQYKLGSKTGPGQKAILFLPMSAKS

Consider “EHS basement-membrane HSPG: basement membrane derived heparan sulfate proteoglycan (perlecan) from mouse Engelbreth-Holm-Swarm sarcoma, Mr approximately 700,000”, for which the Kd was 9 nM with BAPP-770, 10 nM with BAPP-751, 30000 nM in experiment [1] and 0.9 nM with BAPP-695. Moreover, the figures for the “inhibition of binding of 125I-labeled HSPGs to the BAP (in words)” value in experiment [2] (listed as EHS HSPG) and in experiment [2] (listed as isolated basement membrane HSPG) were “more effective competitor” and “strongly inhibited”, respectively. Further, the IC50 in experiment [2] (unlabeled competing ligand, BAP (1-28) affinity column, read-out: concentration at 50% inhibition of 125I-HSPG binding to BAP) is less than 1000 nM. Besides, in experiment [3], the “Alz-50 immunostaining adjacent to infusion site” value is “Lack”.
